assay: yeast display, Sf9 membrane polyspecificity reagent, FACS + sequencing; frameworks hold sequencing errors
Outline: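 Genes from sorted yeast were amplified by colony PCR, read by MiSeq 2 × 250 sequencing and filtered on CDR length. These cells carried a synthetic nanobody library in Saccharomyces cerevisiae BJ5465 and were sorted by FACS into low and high (top ~1%) gates on anti-HA and streptavidin fluorescence. Polyreactivity is labelled according to the gate of origin.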

Sequence	polyreactivity (PSR sort gate)
QVQLQESGGGLVQAGGSLRLSCAASGSISHYIFMGWYRQAPGKEREFVAGIGYGGTTNYADSVKGRFTISRDNAINTVYLQMNSLKPEDTAMYYCAAREATEFYLYYWGQGTQVTVSS	low polyreactivity
QVQLQESGGGLVQAGGSLRLSCAASGSISRLDYMGWYRQASGKERELVAAIDNGSTTYYADSVKGRLTISRDNAKYTVYLQMNSLKTEDTAVYFCAAVRGRGGTHAYWGQGTQVTVSG	low polyreactivity
QVQLQESGGGLVQAGGSLRLSCAASGSISSRDAMGWYRQAPGKEREFVATIASGTTTYYADSVKGSFTISRDNAENTVYLQTNSLKPEDTAVYYCAAPTIQIYPFYYWGQGTQVTVSC	high polyreactivity
QVQLQESGGGLVQAGGSLRLSCAASGSITRYYDMGWYRQAPGKEREFVAGISGGAITYYADSVKGRFTISRDNAKNTVYLQMNSLKPEDTAVYYCAADTGVYQYHSYWGQGTQVTVSS	low polyreactivity
QVQLQESGGGLVQAGGSLRLSCAASGSIYDGFNMGWYRQAPGKEREFVAAISYGASTYYADSVKGRFTVSRDNAKNSVYLQMNSLKPEDTAVYYCAVYDELYHVLVYWGRGTQVTVSS	low polyreactivity
QVQLQESGGGLVQAGGSLRLSCAASGSNFKVVEMGLYRQAPAKDREFVATIGEGGNTYYADSVKGRFTISRDNAKNTVYLQMNSLKPEDTAVYFYAVVLGTSYRYTYWGQGTQVTVSS	low polyreactivity
QVQLQESGGGLVQAGGSLRLSCAASGTIFRISDMGSYRQAPGKELEFVAAITYGANTYYADSGKGRFTISRDNAKNTVYLQMNSLKPEDTAVYYCAVPPVKETILDYWGQGTQVTVSS	low polyreactivity
QVQLQESGGGLVQAGGSLRLSCAASGTISPLPAMGWYRQAPGKERDFVAGIDTGAITNYADSVKGRFTISRDNAKHTVYLQMNSLKPEETAVYYCADFPAAYDYYERYYTYWGQGTQVTVSS	low polyreactivity
QVQLQESGGGLVQAGGSLRLSCAASGTISPLPAMGWYRQAPGKEREFVAGIDTGAITNYADSVKGRFTISRDNGKNTVYLQMNSLNPEDTAVYYCAVFRGAYDYYEGYYTYWGQGTQVTVSS	low polyreactivity
QVQLQESGGGLVQAGGSLRLSCAASGVIFARNYMGWYRQAPGKERELVAGIGVGASTNYADSVKGRFTISRDNAKNTVYLQMNRLEPEDTAVYYCAVVDTVLGYHYYWGQGTQVTVSN	low polyreactivity
QVQLQESGGGLVQAGGSLRLSCAASGYIFPRIDMGWYRQAPGKEREFDAGISYDAITNYADSVKGRFTISLDNAKNTVYLQMNSLKPEDTAVYYCAVSYYGTPLFTYWGQGTQVTVSS	high polyreactivity
QVQLQESGGGLVQAGGSLRLSCAASGYISLAQTIGWFRQAPGKEREFVASIALGSSTYYTDSVKGSFTISRDNAKTTVYLQMNSLKPDDTAVYYCAARVGASYAHDYWGQGTQVTVSS	low polyreactivity
QVQLQESGGGLVQAGGSLRLSCAASGYISLAQTIGWYRQAPGKEREFVASIALGSRTYYTDSVKGSFTISRDNAKTTVYLQMNSLKAEDTAVYYCAARVGASYAHDYWGQGTQVTVSS	low polyreactivity
QVQLQESGGGLVQAGGSLRLSCAASGYISLAQTIGWYRQAPGKEREFVASIALGSSTYYTDSVKGSFTISRDNANTPVYLQMNSLKPEDTAVYYCAARVGASYAHDYWGQGTQVTVSC	low polyreactivity
QVQLQESGGGLVQAGGSLRLSCAASGYISQSSVMGWYRQASGKEREFVASISYGATTYYADSVKGRFTISRDNAKNTVYLQTNSPKPEDTAVYYCAVWVKRGFSHRYWGQGTQVTVSS	high polyreactivity
QVQLQESGGGLVQAGGSLRLSCAASGYISYFVGMAWYRQAPGKEREFVASIADGSNTYYADSVKGRFTISRDNAKNTVYLQRNSLKPEDTAVFYCAVEDSWTYRFDYWGQGTLVTVSS	high polyreactivity
QVQLQESGGGLVQAGGSLRLSCAASSNHSTLDVMGWYRQAPGKEREIVASIGSGGITNYADSVKGRFTISRDNAKNTVYLQMNSLKPEDTAVYYFAVLNQAYTDLIYWGQGTQVTVSS	high polyreactivity
QVQLQESGGGLVQAGGSLRLSCAATGTIFTDRFMGWYLQAPGKERELVACISPGTSTNYADSVKGRFTISRDNAKNTVYLKINSLKPEDTAVYYCAADWSTGNNLPYWGQGTQVTVSS	high polyreactivity
QVQLQESGGGLVQAGGSLRLSCAATGTIFTDRFMGWYRQAPGKERELVAGISPGTSTNYADSVKGRFTISRDNAKNTVYLQMNSLKPEDTAVYYCAADWSTGNTLPYWGQGTQVTVSS	high polyreactivity
QVQLQESGGGLVQAGGSLRLSCASSGSIYDDTYMGWYRQAPGKERELVATIDSGSTTNYADSVKRRITISRDNAKNTVYLQMNSLKPEDTAVYYCAAADSHIDYFDYWGQGTQVTVSS	low polyreactivity
QVQLQESGGGLVQAGGSLRLTCAASGYISYLQSMGLYRQAPVKERELVAGITLGTTTYNADSVKGRFTISPDNVQNTVYLQMNSLKPEYTAVYYCAVAVGHYPEFWYWGQGTQVTMSS	high polyreactivity

Sequence	polyreactivity (PSR sort gate)
QVQLQESGGGLVQAGGSLRMSFAASGNIFDADIMGWYRPAPGKEPELVASITDGRRTNYADSVKGRYTIRRDSEKNTVYLQMNSLKPEDTAVYYCAAIAYPVVPTFVDFDSDYFHWGQGTHVTVSS	high polyreactivity
QVQLQESGGGLVQAGGSLRPRCAAGGTIFVSVNRGWYRHAPGEEREFVASITQGATTNYADSLIGRFTISRDNAKNTVYLQMNCQKPEDTAVYYCAVHESGGITFTYWGQGTQVTVSS	high polyreactivity
QVQLQESGGGLVQAGGSLRPSCAASGSISDGVPMGCYRQAPGEERELVATTVLGATTNYADSVKGRFTISRGNAKNTVYLQMNSLKPEETAVYYCAAPLRYDKGFSYWGQGTQVTVSS	low polyreactivity
QVQLQESGGGLVQAGGSLSLRCSASRNITRSSDLGWYHQAPGKEREFVASITSGGTTYYADSVKGRFTISRDNAKNTVYLEMNSLKPEDTAVYYCAVGDQADAEFGYWGQGTQVTVSS	low polyreactivity
QVQLQESGGGLVQAGGSMRLSCAASGYFSNYYSMGLYRQAPGKERELVAGIGTGTSTYYADSVKGRFTISRDNAKNTVYQQMNSLKPEDTAVYYCAAPLDTSSRIFDYWGQGTQVTVSS	low polyreactivity
QVQLQESGGGLVQAGGSMRLSCAASGYNTIEVTRAGFSRRRAKNANLLPLLITVVLPIKRIAQNTISRDNAKNTVYLQMNSLKPEDTAVYNCAANTIGTDLYEYWGQGTQATVSS	low polyreactivity
QVQLQESGGGLVQAGGSMRLSCAPRGSIYELRPMGWNRQAPGKESELVAGISTGGSTNYADCVIGRFTISRDNAKYSVYLQMNSLKPEDSAVYYCAAASYGEGTYDYWGQGTQVTVRS	high polyreactivity
QVQLQESGGGLVQAGGSPRLSCAASDNIFPDSVMCWYRQAPGNERELVATIGFGATTNYADSVKGRFTISRDNAKNTVYLQMNSLKTEYTAVYYCAADPLNFDYFCYWGQGTQVTVSS	low polyreactivity
QVQLQESGGGLVQAGGSQRLSCAASGYIFYFQYMGWYRKAPGKEREFVAAISDGANTNYADSVKGRFTISRDNAKNTEYLQLNSLKPEDTAVYYCAVYADENYYYIYWGQGTQVNVSS	low polyreactivity
QVQLQESGGGLVQAGGSQRLTCAASVYIFYFQYMGWYRQAPGKEREFVAAMSDGANTNYADSVKGRFTISRDNAKNTESLQMNSLKPEDTAGYYCAVYADENYYYIYGGQGTQVTVSS	low polyreactivity
QVQLQESGGGLVQAGGVLRLSCAASGTISGPHVMGWYRQAPGKEREFVAAINDGANTYYADNVKGRFTISRDNAKNTVYLQMNILKPEDTAVYYCAAVFYGDIGHEYWGQGTQVTVSC	low polyreactivity
QVQLQESGGGLVQAGRSQRLSCAASGYIFYFQYMGWYRQAPGKEREFVAAISDGANTNYADSVKGRFTISRDNAKNSEYLQMNSLKPEDTAVYYCAVYADENYYYIYWGQGTQVTVSS	low polyreactivity
QVQLQESGGGLVQAGVSLRLSCAASGTIFTARFMAWYRQAPGKERELVATITDGGNTNHADSVKGRFSISRDNAKNTVSLQMNSLKPEYAAVYYCAAGEVDNDTLLFWGQGSQVTVSS	low polyreactivity
QVQLQESGGGLVQARGSLRLICAASGNISVTGFMGWYRQAPCKERELVASIGIGGTTYYADSVKGRFSISRDNAKNTVYLQMNSLKPEDTAVYYCAARYLYYAYSYWGQGTQVTVIS	low polyreactivity
QVQLQESGGGLVQARGSLRLSSAASGYISYLDFMGWYGQAPGKERELVAGITTGATTNYADSVKGRFTISRDNAKNIVYQQINSLKQEDTAVYYCARGTEVKSGISYRFYYWGQGTQVTVSS	low polyreactivity
QVQLQESGGGLVQASGSLRLSCAASGNIFPDYVMGWYRLAPGKEREFVANITGGSTTNYADSVKGRFTIIRDNAKNTVYLQMNSLKAEDTAVYYCAVNFGTVVLYLYWGQGTQVTVSS	high polyreactivity
QVQLQESGGGLVQSGGSLRLSCAASGYISSWYPMGWYRHAPGKEREFVATIAPGATTYYADSVKGRFTISRDYAKNTVYLQMNSLKPEDTAVYYCAAGPENNDFYSYWGQGTQVTVSS	low polyreactivity
QVQLQESGGGLVQVGGSLRLTCAASGTIFIYGFLGWNRQAPGKERELVASINLGGITNYADSVKGRFTISRDNAKNTVYLQMISLKPEDTAVYYCAAYVVTGQNYGYWGQGTQVTVSS	low polyreactivity
QVQLQESGGGMVQAGGSLRLSCAASGYISWADYMGWYRQAPGKERELVAGIGYGSTTYYADSVKGRFTISRDNAKNTAYLQMNSLKPEDTAVYYCAVGWYRVTAYKYWGQGTQVTVSS	low polyreactivity
QVQLQESGGGMVQAGGSQRLSCAASGYISWADYMGWYRKATGKERELVAGIGYGSTTYYADSVKGLFTISRDNANNTAYLQMNSLKPEDTAVYYCAVGWYRDTAYKYWGQGTQVTVSS	low polyreactivity

Source: the nanobody polyreactivity screen of Harvey et al. (2022)
